Assay results: the supplement of paper PMC11865577

Key:
Assay in all cases: pull-down binding Z-score (relative to library population); higher = stronger binding
Conditions in all cases: RNA library: Library-2
[1] = test system: TO-3-N3 (biotin conjugate)
Outline: (§1)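 To score binding, a beads-only signal was subtracted, barcoded replicate probes were averaged with the highest and lowest dropped, and the value was converted to a Z-score using the library mean and standard deviation. The input was 1 μg of Cy5- or Cy3-end-labelled RNA library, heat-folded in phosphate/NaCl/KCl buffer and mixed for 60 min at 25 °C with streptavidin beads carrying 100 pmol of biotin-conjugated small molecule. Bound RNA was eluted in hot SDS and hybridised to a DNA barcode microarray at 55.5 °C for 20 h.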

[2] = test system: TO-3-N3-2 (biotin conjugate)
Outline: as §1

TO-N3 (biotin conjugate) = test system: TO-N3 (biotin conjugate)
Outline: as §1

[3] = test system: TO-N3-2 (biotin conjugate)
Outline: as §1

Sequence	pull-down binding Z-score [1]	pull-down binding Z-score [2]	pull-down binding Z-score (TO-N3 (biotin conjugate))	pull-down binding Z-score [3]
AGUGUUUGCCUAGGUUCUUUAAUCUACUCAACCGCU	-0.346	-0.219	-0.288	-0.432
AGUUCAAGAAAUUCAACU	-0.166	-0.224	-0.478	-0.672
AGUUCAAGAACUUUACUCUCCAAUUUUUCUUAUUGUUGCGGCAAUAGUGUUUAUAACACUUUGCUUCACACUCAAAAGAAAGACAGAAUGAUUGAACU	-0.889	-0.46	-1.27	-1.13
AGUUGCUUACUCUAAUAACU [DMSMaPseq_invitro_SARS-CoV-2_Motif_421]	-0.129	-0.314	-0.387	-0.822
AGUUGUGAUCAACU	-0.744	-0.728	-1.06	-1.24
AGUUUACGCCCUGACACACGUUAUGUGCUCAUGGAUGGCU	-0.721	-0.516	-0.719	-0.321
AGUUUUUGUACACAAUUAAACCGUGCUUUAACU	-0.534	-0.252	-0.618	-1.04
AUAAAAUAGAAGAAUUAUUCUAUUCUUAU	-0.26	-0.288	-0.62	-1.22
AUAAACCACCCAUUAGUUUUCCAUUGUGUGCUAAUGGACAAGUUUUUGGUUUAU	-0.734	-0.594	-1.34	-1.1
AUAAAGAAAUGUAUCUAAAGUUGCGUAGUGAUGUGCUAUUACCUCUUACGCAAUAUAAUAGAUACUUAGCUCUUUAU	-0.341	-0.197	-0.507	-0.61
AUAACAAUACUAGAUGGAAUUUCACAGUAUUCACUGAGACUCAUUGAUGCUAUGAUGUUCACAUCUGAUUUGGCUACUAACAAUCUAGUUGU	0.311	0.176	0.384	-0.351
AUAAGAAAGACAAUUCUUAU [DMSMaPseq_invitro_SARS-CoV-2_Motif_114]	-0.755	-0.3	-1.07	-1.45
AUAAUAAGAGGCUGGAUUUUUGGUACUACUUUAGAUUCGAAGACCCAGUCCCUACUUAUUGU	-0.735	-0.168	-0.881	-0.612
AUACCACUUAUGUACAAAGGACUUCCUUGGAAUGUAGUGCGUAU	-0.527	-0.319	-0.207	0.76
AUACCUGCACGUGCUCGUGUAGAGUGU	0.0809	-0.0175	-0.0676	-0.468
AUAGAUUAUGUACCACUAAAGUCUGCUACGUGUAUAACACGUUGCAAUUUAGGUGGUGCUGUCUGU	-0.766	-0.399	-1.01	-0.77
AUAUAACUUCUAAAGAAACUUUGUAU	-0.911	-0.347	-1.28	-1.1
AUAUGUUUACACCACUAAUUCAACCUAUUGGUGCUUUGGACAUAU [DMSMaPseq_invitro_SARS-CoV-2_Motif_171]	-0.425	-0.311	-0.635	-0.719
AUCAAGACUAUUCAACCAAGGGUUGAAAAGAAAAAGCUUGAU	-0.561	-0.241	-0.904	-1.25
AUCACUAGGUUUCAAACUUUACUUGCUUUACAUAGAAGUUAUUUGACUCCUGGUGAU	-0.735	-0.375	-0.884	-1.03
AUCCGAUUUACAGGAU	-0.684	-0.525	-0.894	-1.16
AUCUACAAUGAU [DMSMaPseq_invitro_SARS-CoV-2_Motif_243]	-0.553	-0.742	-0.892	-1.55
AUCUGAAUUCUUCUAGAGUUCCUGAU	0.655	-0.168	0.466	-0.858
AUCUUAGGGAAUUUGUGUUUAAGAAUAUUGAUGGUUAUUUUAAAAUAUAUUCUAAGCACACGCCUAUUAAUUUAGUGCGUGAUCUCCCUCAGGGU	-0.775	-0.113	-0.897	-0.222
AUCUUCUGCAGGCUGCUUACGGUUUCGUCCGUGUUGCAGCCGAUCAUCAGCACAUCUAGGUUUUGUCCGGGUGUGACCGAAAGGUAAGAU [DMSMaPseq_invitro_SARS-CoV-2_Multi_2_ComplexLevel_1]	-0.599	-0.451	-1.06	-0.919
AUCUUUCUGUGCUUUUGCUGUAGAUGCUGCUAAAGCUUACAAAGAU	0.238	0.0938	0.0426	-0.263

Sequence	pull-down binding Z-score [1]	pull-down binding Z-score [2]	pull-down binding Z-score (TO-N3 (biotin conjugate))	pull-down binding Z-score [3]
AUGAACCACAAAUCAU [DMSMaPseq_invitro_SARS-CoV-2_Motif_444]	0.463	-0.31	0.254	-1.03
AUGAAUCUCUCAU [SHAPE_invivo_SARS-CoV-2_Motif_473]	-0.104	-0.347	-0.427	-0.958
AUGAGAAGUGCUCUGCCUAUACAGUUGAACUCGGUACAGAAGUAAAUGAGUUCGCCUGUGUUGUGGCAGAUGCUGUCAU [SHAPE_invitro_SARS-CoV-2_Motif_53]	-0.626	-0.278	0.461	2.07
AUGAGGUUUAGAAGAGCUUUUGGUGAAUACAGUCAUGUAGUUGCCUUUAAUACUUUACUAUUCCUUAU	-0.216	0.205	-0.296	-0.689
AUGAGUACGAACUUAUGUACUCAU	-0.0199	-0.43	-0.309	-1.18
AUGAUGUUUCUUUUUUAGCACAU	-0.696	-0.427	-1.09	-1.28
AUGCAUUCUGCAU [SHAPE_invivo_SARS-CoV-2_Motif_273]	-0.0791	-0.638	-0.142	-1.32
AUGCCAACUAUUUUCUUUGCUGGCAU	-0.81	-0.637	-1.36	-1.13
AUGCCUUUUUACCUUUUGCUAUGGGUAUUAUUGCUAUGUCUGCUUUUGCAAUGAUGUUUGUCAAACAUAAGCAUGCAU [DMSMaPseq_invitro_SARS-CoV-2_Multi_36_ComplexLevel_1]	0.159	0.472	0.0122	-0.261
AUGCUGACGAUGGUCAUUUUGUCAGCAU [IAV_invivo_M1_M2_7_Motif_18+IAV_invivo_M1_M2_7_Motif_18]	0.0275	0.337	-0.322	-0.84
AUGCUGUUACAGCGU	-0.973	-0.512	-1.35	-1.07
AUGCUUGGAACAGGAAGAGAAUCAGCAACUGUGUUGCUGAUUAUUCUGUCCUAUAUAAUUCCGCAU [DMSMaPseq_invitro_SARS-CoV-2_Motif_399]	-0.314	-0.327	-0.459	-0.139
AUGGCCCCGAUUUCAGCUAU [SHAPE_invivo_SARS-CoV-2_Motif_151]	-0.51	-0.281	-0.668	-0.0238
AUGGCUGAUCAAGCUAU [DMSMaPseq_invitro_SARS-CoV-2_Motif_216]	-0.238	-0.583	-0.208	-0.747
AUGGUAAGUGCGAUACUUACCUG [U1snRNP5ss-24]	-0.32	-0.139	-0.213	0.974
AUGGUCUUUGUUCUUUUUUUUGUAUGAAAAUGCCUUUUUACCUUUUGCUAUGGGUAUUAUUGCUAU	-0.455	0.135	-0.507	-0.569
AUGGUGCUAACAAAGACGGCAUCAU [SHAPE_invivo_SARS-CoV-2_Motif_545]	0.0674	-0.105	-0.143	-0.639
AUGGUUAUCUUACUUCUUCUUCUAAAACACCUGAAGAACAUUUUAUUGAAACCAU	-0.93	0.0544	-1.19	-1.01
AUGUACAUCUUCUUUGCAUCAUUUUAUUAUGUAUGGAAAAGUUAUGUGCAU	-1.16	-0.603	-1.36	-1.44
AUGUACUUGGAUUGGCUGCAAUCAUGCAAUUGUUUUUCAGCUAUUUUGCAGUACAU	-0.182	-0.577	-0.401	-0.271
AUGUCAUAUUGGAGUUGGACUGCAGGGCUUCCUUUACACAAUAAAUAUUGUAUGAAGUGCUGAUGUAACCUUUACUGCAGCAUGACAU [hsa-mir-3976]	0.131	-0.081	0.227	0.0127
AUGUUUGUCAAACAUAAGCAU [DMSMaPseq_invitro_SARS-CoV-2_Motif_200]	-0.651	-0.54	-0.873	-0.806
AUUACUGCAAAAUGGUAUGAAUGGACGUACCAUAUUGGGUAGU [DMSMaPseq_invitro_SARS-CoV-2_Motif_194]	0.151	0.144	0.0935	-0.151
AUUAGAGAAAACAACAGAGUUGUUAUUUCUAGU [DMSMaPseq_invitro_SARS-CoV-2_Motif_378]	0.0547	-0.0987	-0.17	-0.787
AUUAUGAGGACUUUUAAAGUUUCCAUUUGGAAUCUUGAUUACAUCAUAAACCUCAUAAU	-1.1	-0.377	-1.39	-1.25
